Results taken from the supplement of paper PMC9170038.

Assays:
MS2 coat protein [1] = assay: apparent KD of MS2 coat protein, switch ON state; designed switch direction (-1 OFF switch, 1 ON switch): -1; higher = weaker reporter binding; settings: FMN input: 0 or 200 uM; Eterna round: R93 (includes R88 designs)
How it was run: (§1)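 Titrations with SNAP-549-labelled MS2 coat protein ran in twofold steps from 0.7 or 1.5 nM to 3 µM, each step taking 0.8–1.5 h at the start and 10–20 min toward the end. The targets were designed RNA switches transcribed on-chip from Illumina sequencing clusters, held in 100 mM Tris-HCl pH 7.5, 80 mM KCl, 4 mM MgCl2, without or with constant ligand. Apparent KD was taken per design as the median of normalised cluster binding-curve fits.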

MS2 coat protein [2] = assay: apparent KD of MS2 coat protein, switch OFF state (with FMN for OFF switches, without FMN for ON switches); designed switch direction (-1 OFF switch, 1 ON switch): -1; higher = weaker reporter binding; settings: FMN input: 0 or 200 uM; Eterna round: R93 (includes R88 designs)
How it was run: as §1

Sequence | apparent KD of MS2 coat protein (MS2 coat protein [1]) | apparent KD of MS2 coat protein (MS2 coat protein [2])
AAAAAACAUGAGGAUCACCCAUGUGAGGAUAUCCUAAACAAAAAAAACAAAAACAAAUGGAGAAGGCACAAAAA [Amethyst 35] | 0.105 µM | 0.126 µM
AAAAAACAUGAGGAUCACCCAUGUGAGGAUAUCGGAGGAGGAGGAGGAGGAGGAGGAGCGAGAAGGUACAAAAA [salish99-Ex1-04] | 0.0144 µM | 0.0315 µM
AAAAAACAUGAGGAUCACCCAUGUGAGGAUAUCUAAAACAAAACAAAAACAAAACAAAGGAGAAGGUAUAUGAA [Amethyst 67] | 0.019 µM | 0.0292 µM
AAAAAACAUGAGGAUCACCCAUGUGAGGAUAUCUGUAUUCAAUCCUCGGAUUGAAUACAGAGAAGGCACAUGGA [Ex1: 610] | 0.0464 µM | 0.0138 µM
AAAAAACAUGAGGAUCACCCAUGUGAGGAUAUGACGUAAAUAAAGAAAGAAUAAAUCGUCAGAAGGCACAAAAA [Mat - Exclusion 1 - Eli mod - D72] | 0.0314 µM | 0.0403 µM
AAAAAACAUGAGGAUCACCCAUGUGAGGAUAUGAUGCGAAUAAAGAAAGAAGAAAGCAUCAGAAGGCACAAAAA [58%, Disencluded 3, 2] | 0.0258 µM | 0.0435 µM
AAAAAACAUGAGGAUCACCCAUGUGAGGAUAUGAUGCGAAUAAAGAAAGAAUAAAGCAUCAGAAGGCACACCAA [Mat - Exclusion 1 - Eli mod - D61] | 0.0279 µM | 0.0487 µM
AAAAAACAUGAGGAUCACCCAUGUGAGGAUAUGCAAAACCCAUAUAAAAAGGGAAAAAGCAGAAGGUACAAAAA [Starry Exclusion 1.2 (wbt round 1 mod)] | 0.0207 µM | 0.0213 µM
AAAAAACAUGAGGAUCACCCAUGUGAGGAUAUGCGAAAAUAAAAUAAAUAAAUAAAAAGCAGAAGGCACACCAA [Mat - Exclusion 1 - Eli mod - D60] | 0.0253 µM | 0.0411 µM
AAAAAACAUGAGGAUCACCCAUGUGAGGAUAUGCUAAAAAAAUCCGCAUAAAAAAAUAGCAGAAGGCACAUAAA [PK1] | 0.025 µM | 0.0441 µM
AAAAAACAUGAGGAUCACCCAUGUGAGGAUAUGGAAAGAAAAAAAAAGAAAGAAAAAACCAGAAGGCACAAAAA [Amethyst 30] | 0.0428 µM | 0.0238 µM
AAAAAACAUGAGGAUCACCCAUGUGAGGAUAUUGGUAUUCAAGAUAUAAUCUUAAUAGCGAGAAGGCGCAAAAA [Brourd 613 Mod 17 - Jieux - Exclusion 1] | 0.0241 µM | 0.0219 µM
AAAAAACAUGAGGAUCACCCAUGUGAGGAUAUUGGUAUUCAGGAUAUAAUCUCAAUAGCGAGAAGGCGCAUAAA [Brourd 613 Mod 16 - Jieux - Exclusion 1] | 0.0209 µM | 0.0181 µM
AAAAAACGAGGAUAUACAAAAACAAAAGGAACAAAAUACAAACAUGAGGAUCACCCAUGUAGAAGGCGUAAAAA [Default title] | 0.0295 µM | 0.0235 µM
AAAAAAGGAGGAUAUACGAACAUGUCAAAAGACGUGAAGGGACAUGAGGAUCACCCAUGUAGAAGGUUUAAAAA [JL Wide Open 32] | 0.048 µM | 0.015 µM
AAAAAAUGAGGAUAUACAUGAAAAAAAAAAAAAAAAAAAAAACAUGAGGAUCACCCAUGUAGAAGGCGUAAAAA [Flexi GU!] | 0.0398 µM | 0.029 µM
AAAAACGUAGGAUAUACAUGAGGAUCACCCAUGUAAAAAAAAAAGGGAGAAAAAAGAAGUAGAAGGACGAAAAA [JR_Exc003_Sub002] | 0.0324 µM | 0.0271 µM
AAAAAGAAAGGAUAUACGAACAUGUCGAAAGACGUGAAGGGACAUGAGGAUCACCCAUGUAGAAGGUUUAAAAA [Mat - Exclusion 2 - JL mod - D82] | 0.0252 µM | 0.0179 µM
AAAAAGACAGGAUAUACAUGAAAAAAAAAAAAAAAAAAAAAACAUGAGGAUCACCCAUGUAGAAGGGUCAAAAA [Starry's Exclusion 2] | 0.0716 µM | 0.0546 µM
AAAAAGAGAGGAUAUACAGGAGGACCACCACAAAAAAAAAUACAUGAGGAUCACCCAUGUAGAAGGCUCAAAAA [Default title] | 0.0351 µM | 0.0661 µM
AAAAAGAUAGGAUAUACGUACAUGUCGAAAGACGUGAAGGGACAUGAGGAUCACCCAUGUAGAAGGAUUAAAAA [Mat - Exclusion 2 - JL mod - D90] | 0.0438 µM | 0.0145 µM
AAAAAGCGAGGAUAUACAUGAGGAUCACCCAUGUCAAACGGUAAGACCGCAGGAAAAAGUAGAAGGCGCAAAAA [Exclusion3-02] | 0.0659 µM | 0.0968 µM

Sequence | apparent KD of MS2 coat protein (MS2 coat protein [1]) | apparent KD of MS2 coat protein (MS2 coat protein [2])
AAAAAGCGAGGAUAUACAUGAGGAUCACCCAUGUGAAAAAAAAAAUAAUAAAUAAAAGGUAGAAGGCGCAAAAA [V1] | 0.072 µM | 0.0879 µM
AAAAAGCUAGGAUAUACGAAAAAAAAGGGUAAAAUAAAUAAACAUGAGGAUCACCCAUGUAGAAGGAGCAAAAA [Mat - Exclusion 2 - Tesla mod - D37] | 0.0426 µM | 0.0383 µM
AAAAAGGAAGGAUAUACGAACAUGUCAAAAGACGUGAAGGGACAUGAGGAUCACCCAUGUAGAAGGUUUAAAAA [JL Wide Open 25] | 0.0393 µM | 0.0186 µM
AAAAAGGAAGGAUAUACGAACAUGUCGAAAGACGUGAAGGGACAUGAGGAUCACCCAUGUAGAAGGUCCAAAAA [Mat - Exclusion 2 - JL mod - D79] | 0.0472 µM | 0.0458 µM
AAAAAGGCAGGAUAUACAUGAGGAUCACCCAUGUAAAAAAAAAAAAAGGGAAAAAAAAGUAGAAGGGCCAAAAA [Khamudi] | 0.0358 µM | 0.0485 µM
AAAAAGGCAGGAUAUACGAACAUGUCAAAAGACGUGAAGGGACAUGAGGAUCACCCAUGUAGAAGGGUCAAGAA [JL Stem Breaker 18] | 0.218 µM | 0.0521 µM
AAAAAGGCAGGAUAUGCAUACUCACGGAAAAAAAGGUUGGGACAUGAGGAUCACCCAUGUAGAAGGGCUAAAAA [Dora Explored 15 - Jieux - Exclusion 2] | 0.0852 µM | 0.0608 µM
AAAAAGGCAGGAUAUGCAUACUCACGGAAAAACUGGAUGGUACAUGAGGAUCACCCAUGUAGAAGGGCUAAAAA [Dora Explored 16 - Jieux - Exclusion 2] | 0.055 µM | 0.0443 µM
AAAAAGGGAGGAUAUACAUGAGGAUCACCCAUGUAAAAAAAAAAAAAAAAAAGGGAAGGUAGAAGGCCCAAAAA [Excls3-I] | 0.0646 µM | 0.0211 µM
AAAAAGGGAGGAUAUACAUGAGGAUCACCCAUGUAUCAGACGAAAAAGAGUCUGAAGUGUAGAAGGCCCAAAAA [Exclusion3-cac2] | 0.02 µM | 0.0256 µM
AAAAAGGGAGGAUAUGCAUAAAAAAAAAAAAAAAAAAAAAAACAUGAGGAUCACCCAUGUAGAAGGCCCAAAAA [Dora Explored - Jieux - Exclusion 2] | 0.058 µM | 0.0363 µM
AAAAAGGGAGGAUAUGCAUACACACAAAAAAAAAAACCGGGACAUGAGGAUCACCCAUGUAGAAGGCCCAAAAA [Dora Explored 6 - Jieux - Exclusion 2] | 0.0335 µM | 0.025 µM
AAAAAGUAAGGAUAUACAAAAAUAAAAAAUUAUGAUAAAAAACAUGAGGAUCACCCAUGUAGAAGGUACGAAAA [AJ 3] | 0.0275 µM | 0.0267 µM
AAAAAGUAAGGAUAUAUAAAAAUAAAAAAUUAUGAUAAAAAACAUGAGGAUCACCCAUGUAGAAGGUACGAAAA [AJ 2] | 0.0262 µM | 0.0256 µM
AAAAAGUCAGGAUAUACAGAAAAAAAAACGAAAAAAAAUCUGUAGAAGGGACAUGAGGAUCACCCAUGUUAAAA [Ex 4 May 13] | 0.0415 µM | 0.0268 µM
AAAAAGUCAGGAUAUACAGGAGUGCGAAAGCACAAAAAAAAACAUGAGGAUCACCCAUGUAGAAGGGACAAGAA [Married to this design, 61% 6] | 0.0527 µM | 0.0331 µM
AAAAAGUCAGGAUAUACGAAAGUGCGAAAGCACAAAAGGAAACAUGAGGAUCACCCAUGUAGAAGGGACAAGAA [Married to this design, 61% 1] | 0.0454 µM | 0.0328 µM
AAAAAGUCAGGAUAUACGAACAUGUCAAAAGACGUGAAGGGACAUGAGGAUCACCCAUGUAGAAGGGACAAGAA [JL Stem Breaker 20] | 0.0852 µM | 0.0396 µM
AAAAAGUCAGGAUAUACGUACAUGUCGAAAGACGUGAAGGGACAUGAGGAUCACCCAUGUAGAAGGGACAAGAA [Mat - Exclusion 2 - JL mod - D78] | 0.0996 µM | 0.0918 µM
AAAAAGUCAGGAUAUAUCAAAGCCUAUGAAAGUGGGAAAGGGUAGAAGGGACAUGAGGAUCACCCAUGUAAAAA [Banishment 10 - Jieux - Exclusion 4] | 0.0623 µM | 0.0385 µM
AAAAAGUCAGGAUAUCGGAAAAAAAAAAAAAAAAGGAGAAACGAGAAGGGACAUGAGGAUCACCCAUGUAAAAA [No Frills] | 0.117 µM | 0.044 µM
AAAAAGUCAGGAUAUCGGAAAAAAAAAAUAAAAAAAAAAAACGAGAAGGGACAUGAGGAUCACCCAUGUAUGAC [Mat - Exclusion 4 - Mayanna - D112] | 0.0374 µM | 0.0413 µM
